The record followed here is patent US12404336 (dated 2025).

Test [1] addresses T1, human LAG-3 fused to mouse IgG2a (huLAG-3-mIgG2a) (human, UniProt P18627 23-450).
T1 chain: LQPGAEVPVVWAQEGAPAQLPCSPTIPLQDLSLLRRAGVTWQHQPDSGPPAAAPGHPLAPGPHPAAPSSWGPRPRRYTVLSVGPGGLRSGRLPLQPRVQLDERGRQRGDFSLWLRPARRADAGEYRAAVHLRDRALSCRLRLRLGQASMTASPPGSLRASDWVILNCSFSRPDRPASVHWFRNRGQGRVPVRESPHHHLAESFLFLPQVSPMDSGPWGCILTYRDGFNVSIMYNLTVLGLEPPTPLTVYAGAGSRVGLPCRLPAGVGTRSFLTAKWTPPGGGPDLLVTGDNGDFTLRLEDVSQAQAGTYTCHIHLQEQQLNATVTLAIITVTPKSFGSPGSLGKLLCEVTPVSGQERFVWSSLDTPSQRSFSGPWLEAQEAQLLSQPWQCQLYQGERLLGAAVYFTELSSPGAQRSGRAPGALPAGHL
Description: cell-based blocking of LAG-3-muFc binding to MHC on Raji cells.

For a further test, the target named is T2, His tagged human LAG-3 (human, UniProt P18627 23-450).
T2 chain: T1 chain
Description: SPR. For orientation: In SPR one partner is held on a chip, and binding of the other changes the refractive index at the surface.

The target in test [2] is T1, human LAG-3 fused to mouse IgG2a …. The experiment in a line: SPR.
For test [3], the target named is T3, human LAG-3 on CHO-K1 cells (human, UniProt P18627 23-525).
T3 chain: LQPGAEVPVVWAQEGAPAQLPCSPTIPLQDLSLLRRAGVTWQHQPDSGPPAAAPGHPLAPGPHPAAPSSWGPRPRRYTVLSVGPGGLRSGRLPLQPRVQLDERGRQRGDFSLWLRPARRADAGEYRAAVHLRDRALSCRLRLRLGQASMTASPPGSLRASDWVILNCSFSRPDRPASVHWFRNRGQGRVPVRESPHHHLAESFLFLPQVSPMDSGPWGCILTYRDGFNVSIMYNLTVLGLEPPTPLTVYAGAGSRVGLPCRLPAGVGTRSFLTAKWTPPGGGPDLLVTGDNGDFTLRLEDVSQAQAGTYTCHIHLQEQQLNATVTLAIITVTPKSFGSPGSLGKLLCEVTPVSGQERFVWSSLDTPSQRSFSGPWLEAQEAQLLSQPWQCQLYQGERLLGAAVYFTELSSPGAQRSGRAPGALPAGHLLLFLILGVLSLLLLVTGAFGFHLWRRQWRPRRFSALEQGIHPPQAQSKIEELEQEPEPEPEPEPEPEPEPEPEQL
Description: flow cytometry binding. In general terms: A flow cytometer gives signals particle by particle.

Test [4] deals with T4, human TIGIT on transfected CHOK1 cells (human, UniProt Q495A1 22-244).
T4 chain: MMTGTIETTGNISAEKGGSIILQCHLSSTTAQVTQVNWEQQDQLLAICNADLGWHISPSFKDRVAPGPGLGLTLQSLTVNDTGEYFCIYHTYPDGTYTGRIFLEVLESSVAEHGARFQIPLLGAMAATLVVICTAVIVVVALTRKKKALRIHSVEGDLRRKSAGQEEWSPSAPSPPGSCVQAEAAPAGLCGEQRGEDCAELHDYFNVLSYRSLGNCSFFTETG
Description: cell-based blocking of TIGIT/PVR.

In test [5] the target is T1, human LAG-3 fused to mouse IgG2a …. The experiment in a line: cell-based blocking of LAG-3/MHC II.
The target in test [6] is T5, His tagged human TIGIT protein (human, UniProt Q495A1 22-141).
T5 chain: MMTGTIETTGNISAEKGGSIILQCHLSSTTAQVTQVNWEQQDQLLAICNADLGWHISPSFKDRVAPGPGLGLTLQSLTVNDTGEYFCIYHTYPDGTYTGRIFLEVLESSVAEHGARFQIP
The experiment in a line: sandwich ELISA; simultaneous binding of LAG-3-muFc and His-tagged TIGIT. (ELISA stands for enzyme-linked immunosorbent assay.)

Test [7] concerns the target His tagged human PD-1 protein (human, UniProt Q15116 25-167). Description: BLI.
In test [8] the target is T5, His tagged human TIGIT protein. Description: BLI.

Chain of His tagged human PD-1 protein (Q15116 25-167): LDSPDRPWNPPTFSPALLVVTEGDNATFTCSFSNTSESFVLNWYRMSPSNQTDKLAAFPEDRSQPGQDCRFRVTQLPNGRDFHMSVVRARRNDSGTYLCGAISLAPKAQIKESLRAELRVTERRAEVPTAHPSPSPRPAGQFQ

B1: chimeric 2L2A antibody (antibody, V domains shown)
VH: EVQLQQSGPVLVKPGASVKMSCKASGYTLTDYYMNWMKQSHGKSLEWIGVINPYNGDTSCNQKFKGKATLTADKSSSTAYMELNSLTSDDSAVYYCVRDDGYYVHYFDYWGQGTTLTVSS
VL: DIQMTQSPSSLSASLGERVTLTCRASQDISSRLTWLQQEPDGTIKRLIYATSSLDSGVPKRFNGSRSGSDYSLTISSLESEDFVDYYCLQYASSPLTFGAGTKLELKR
Broadly, the IC50 is the concentration that gives 50% inhibition. Read a low IC50 as higher potency. Turning to B1, in test [1], the IC50 worked out at 3.74 nM.

B2: 2L2A.1 (antibody, V domains shown)
VH: QVQLVQSGAEVKKPGASVKVSCKASGYTLTDYYMNWMRQAPGQGLEWMGVINPYNGDTSYNQKFKGRVTMTRDTSTSTVYMELSSLRSEDTAVYYCVRDDGYYVHYFDYWGQGTLVTVSS
VL: DIQMTQSPSSLSASVGDRVTITCRASQDISSRLTWLQQEPEKAPKRLIYATSSLDSGVPKRFSGSGSGTDFTLTISSLQPEDFATYYCLQYASSPLTFGGGTKVEIK
As usually defined, the Kd is the equilibrium constant for the complex coming apart. As usually defined, the EC50 is the midpoint of the concentration-response curve. High values mean a less potent agent, low ones a more potent agent. On to B2, for which the Kd amounted to 1.42 nM with His tagged human LAG-3 and 0.001 nM in test [2]. Moreover, in test [3], a half-maximal response (EC50) required 1.48 nM. In [1], the IC50 was found to be 1.97 nM.

B3: Bi-LT-1 (antibody)
chain 1: not shown
chain 2: DIQMTQSPSSLSASVGDRVTITCRASQDISSRLTWLQQKPEKAPKRLIYATSSLDSGVPSRFSGSGSGTDFTLTISSLQPEDFATYYCLQYASSPLTFGGGTKVEIKRTVAAPSVFIFPPSDEQLKSGTASVVCLLNNFYPREAKVQWKVDNALQSGNSQESVTEQDSKDSTYSLSSTLTLSKADYEKHKVYACEVTHQGLSSPVTKSFNRGEC
For the molecule B3, the values for the IC50 in test [4] and in test [5] were 0.24 nM and 0.7 nM, respectively. The molecule further returned an EC50 in [6] of 0.0107 mg/L.

B4: Bi-LT-3 (antibody)
chain 1: not shown
chain 2: B3 chain 2
For B4, the IC50 is 0.22 nM in [4] and 0.9 nM in [5]. Besides, the midpoint of the response in test [6], the EC50, lay at 0.0108 mg/L.

B5: Bi-TPM-94A (antibody)
chain 1: not shown
chain 2: DIQMTQSPSFLSASVGDRVTITCKASQNVGTNVAWYQQKPGKAPKALIYSASYRYSGVPSRFSGSGSGTEFTLTISSLQPEDFATYYCQQYYSYPYTFGQGTKLEIKRTVAAPSVFIFPPSDEQLKSGTASVVCLLNNFYPREAKVQWKVDNALQSGNSQESVTEQDSKDSTYSLSSTLTLSKADYEKHKVYACEVTHQGLSSPVTKSFNRGEC
In test [7], B5 had a Kd of 2.9 nM.

B6: Bi-TPM-94B (antibody)
chain 1: not shown
chain 2: B5 chain 2
On to B6, for which the Kd in [7] was 2.7 nM; in [8], 1.7 nM. Moreover, inhibition in test [4] was half-maximal at 0.13 nM (IC50).
